Values quoted from earlier work, collected in article PMC8844171 (Clinical Drug Investigation, 2022).
Where two headings read alike, the source gives them in different places.

System: patients with distal MCA or ICA occlusion

B1: alteplase: standard thrombolytic treatment for AIS (protein, UniProt P00750 36-562, looked up)
Tissue-type plasminogen …: SYQVICRDEKTQMIYQQHQSWLRPVLRSNRVEYCWCNSGRAQCHSVPVKSCSEPRCFNGGTCQQALYFSDFVCQCPEGFAGKCCEIDTRATCYEDQGISYRGTWSTAESGAECTNWNSSALAQKPYSGRRPDAIRLGLGNHNYCRNPDRDSKPWCYVFKAGKYSSEFCSTPACSEGNSDCYFGNGSAYRGTHSLTESGASCLPWNSMILIGKVYTAQNPSAQALGLGKHNYCRNPDGDAKPWCHVLKNRRLTWEYCDVPSCSTCGLRQYSQPQFRIKGGLFADIASHPWQAAIFAKHRRSPGERFLCGGILISSCWILSAAHCFQERFPPHHLTVILGRTYRVVPGEEEQKFEVEKYIVHKEFDDDTYDNDIALLQLKSDSSRCAQESSVVRTVCLPPADLQLPDWTECELSGYGKHEALSPFYSERLKEAHVRLYPSSRCTSQHLLNRTVTDNMLCAGDTRSGGPQANLHDACQGDSGGPLVCLNDGRMTLVGIISWGLGCGQKDVPGVYTKVTNYLDWIRDNMRP
For B1, the Recanalization rate (patients with ICA occlusion) is listed as less than 10% and the Recanalization rate (patients with distal MCA occlusion) is listed as “approximately 40%”.
